Assays:
[1] = Fraction of soluble product on expression in E. coli, estimated from SDS-PAGE; format: physicochemical; conditions: MGSSHHHHHHGSS-[Y#####]-A; for Est soluble fraction: Table 9, mutation study 5; for Estimated soluble fraction: Table 7, Ylib002Naive.I selection
Procedure: E. coli T7E2 cells were transformed with plasmids containing the gene fragment of each respective Y variant. The resulting recombinant strains were generally cultivated in media supplemented with 50 μg/ml kanamycin at 30-37° C. in 50 ml scale using the EnPresso protocol (Enpresso GmbH). In order to induce protein expression, isopropyl-β-D-1-thiogalactopyranoside (IPTG) was added to a final concentration of 0.5 mM at an optical density at 600 nm (OD600) of approximately 10. After induction, the cultures were incubated for 16 h. The cells were harvested by centrifugation. Alternatively, the culture was performed at 37° C. in 980 ml of TSB-YE medium (tryptic soy broth 30 g/l supplemented with yeast extract 5 g/l) supplemented with 50 μg/ml kanamycin, and protein expression induced with 0.2 mM IPTG at OD600=2, followed by incubation for 5 h before harvesting of the cells by centrifugation. The total yield as well as the fraction of soluble and insoluble product of the respective Y variant was estimated based on SDS-PAGE analysis.

[2] = molecular target: T1, IL-6 (Homo sapiens, UniProt P05231); assay: Kinetic analysis using surface plasmon resonance (Biacore T200), immobilized IL-6; format: binding
T1 construct: purchased R&D Systems 206-IL-200/CF
T1 sequence (P05231 30-212): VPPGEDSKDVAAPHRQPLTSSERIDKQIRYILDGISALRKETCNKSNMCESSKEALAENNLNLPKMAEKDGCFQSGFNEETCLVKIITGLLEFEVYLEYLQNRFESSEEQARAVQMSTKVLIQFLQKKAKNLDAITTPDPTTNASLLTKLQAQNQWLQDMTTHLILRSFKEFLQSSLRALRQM
Procedure: (§1) Kinetic constants (ka and kd) and affinities (KD) were determined for His6-tagged Y variants using a Biacore T200 instrument (GE Healthcare). Target proteins C4, IL-6 and insulin, respectively, were immobilized in separate flow cells on the carboxylated dextran layer of different CM5 chip surfaces (GE Healthcare). Immobilization was performed using amine coupling chemistry according to the manufacturer's protocol and PBS pH 7.4 supplemented with 0.1 Tween20 (PBST 0.1%) as running buffer. The ligand immobilization levels on the surfaces were 3280-8830 RU for C4, 495-1184 RU for IL-6, and 270-282 RU for insulin. One flow cell surface on each chip was activated and deactivated for use as blank during analyte injections. In the kinetic experiment, PBST 0.1% was used as running buffer at a flow rate of 30 μl/min. The analytes, i.e. Y variants, were each diluted in PBST 0.1 buffer at concentrations of 1000, 500, 100, 50 and 10 nM and injected for 5 min, followed by dissociation in running buffer for 3 min. After dissociation, the surfaces were regenerated with one injection of 30 μl 10 mM HCl. Kinetic constants were calculated from the sensorgrams using the Langmuir 1:1 model of Biacore T200 Evaluation software 2.0 (GE Healthcare).
(§2) Produced Y variants were subjected to CD and SPR analyses according to the methods described in Example 1.
(§3) Produced Y variants were subjected to CD and SPR analyses according to the methods described in Example 1. In addition, CD spectra of selected IL-6 binding variants were also recorded at 60, 70, 80 and 90° C.
(§4) The Y variants were cloned, produced and characterized according to the general methods described in Example 1. Produced Y variants with point mutations were subjected to CD and SPR analyses as described in Example 1. In addition, CD spectra of the IL-6 binding variants were also recorded at 60, 70, 80 and 90° C.

[3] = molecular target: T2, insulin (Homo sapiens, UniProt P01308); assay: Kinetic analysis using surface plasmon resonance (Biacore T200), immobilized insulin; format: binding; conditions: MGSSHHHHHHGSS-[Y#####]-A
T2 construct: purchased Roche 1376497
T2 sequence (P01308 25-54 limits assumed): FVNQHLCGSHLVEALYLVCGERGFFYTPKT
T2 sequence (P01308 90-110 limits assumed): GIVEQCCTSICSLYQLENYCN
Procedure: as §1, §2
(§5) The Y variants were cloned, produced and characterized according to the general methods described in Example 1. Produced Y variants with point mutations and/or N-terminal or C-terminal extensions were subjected to CD and SPR analyses as described in Example 1.
as §3, §4

[4] = Circular dichroism spectroscopy analysis (CD spectra, variable temperature measurement, refolding); format: physicochemical; conditions: for α-helical content / ability to fold into an α-helical structure: CD spectrum at 20° C.
Procedure: The respective Y variant was diluted to 0.5 mg/ml in PBS. A CD spectrum at 250-195 nm was obtained at 20° C. In addition, a variable temperature measurement (VTM) was performed to determine the melting temperature (Tm). In the VTM, absorbance was measured at 221 nm while the temperature was raised from 20° C. to 90° C. with a temperature gradient of 5° C./min. A new CD spectrum was obtained at 20° C. after the heating procedure, in order to study the refolding ability of the Y variants. The CD measurements were performed on a Jasco J-810 spectropolarimeter (Jasco Scandinavia AB) using a cell with an optical path length of 1 mm.
as §2, §5, §3, §4

[5] = Table 9, mutation study 5, MGSSHHHHHHGSS-[Y#####]-A
[6] = Table 7, MGSSHHHHHHGSS-[Y#####]-A
[7] = Table 2, His6-tagged Y variant, MGSSHHHHHHGSS-[Y#####]-ASGSVD
[8] = Table 2, Ylib001Naive.I selection, MGSSHHHHHHGSS-[Y#####]-ASGSVD, 0.5 mg/ml in PBS, 221 nm, 20-90° C.

In the case of “Y02703: IL-6 binding Y variant, Y02444 with K15Y Q26E, SEQ ID NO:87 (LAEAKEAAIAELDSYGVGAVEIKQIEEALLVEIVQLLKQAILAVLPA; Engineered IL-6 binding Y variant)”, the Est soluble fraction [1] is reported as 100%, the Kd [2, 5] is reported as 120 nM and the ka [2, 5] is reported as 21000 M⁻¹ s⁻¹. The kd [2, 5] was 0.0025 s⁻¹.
With “Y02415: IL-6 binding Y variant from Ylib002Naive.I, SEQ ID NO:74 (LAEAKEAAIAELDSKGVGAGDIKDIQDALLVEIVQLLKQAILAVLPA; Engineered IL-6 binding Y variant)” the Estimated soluble fraction [1] was 100%, the Kd [2, 6] was 160 nM and the ka [2, 6] was 9700 M⁻¹ s⁻¹. The kd [2, 6] was 0.0015 s⁻¹.
For “Y02699: IL-6 binding Y variant, Y02444 with Q26E, SEQ ID NO:83 (LAEAKEAAIAELDSKGVGAVEIKQIEEALLVEIVQLLKQAILAVLPA; Engineered IL-6 binding Y variant)”, the Est soluble fraction [1] was 100%, the Kd [2, 5] was 200 nM and the ka [2, 5] was 19000 M⁻¹ s⁻¹. For the same substance, the kd [2, 5] was 0.0029 s⁻¹.
With “Y02716: insulin binding Y variant, Y00301 with K15Y Q26E, SEQ ID NO:156 (LAEAKEAAIAELDSYGVGARQIKWIEQAKSVEVVQWLKQAILADLPA; Engineered insulin binding Y variant)” the Kd ([3]; Table 9, mutation study 5) was 7.6 nM, the ka ([3]; Table 9, mutation study 5) was 2.7e+07 M⁻¹ s⁻¹ and the kd ([3]; Table 9, mutation study 5) was 0.21 s⁻¹. It also gave an Est soluble fraction [1] of 100% and a Tm [4, 5] of 58 °C.
“Y02713: insulin binding Y variant, Y00310 with K15Y, SEQ ID NO:153 (LAEAKEAAIAELDSYGVGAYQIKFIQIAHTVEEVQLMKQAILADLPA; Engineered insulin binding Y variant)” gave a Kd ([3]; Table 9, mutation study 5) of 190 nM, a ka ([3]; Table 9, mutation study 5) of 110000 M⁻¹ s⁻¹ and a kd ([3]; Table 9, mutation study 5) of 0.014 s⁻¹. The Est soluble fraction [1] was 100% and the Tm [4, 5] was 51 °C.
“Y00304: insulin binding Y variant from Ylib002Naive.I, SEQ ID NO:134 (LAEAKEAAIAELDSKGVGAYQIKFIQVAHDVEEVQILKQAILADLPA; Engineered insulin binding Y variant)” gave a Kd ([3]; Table 7) of 21 nM, a ka ([3]; Table 7) of 85000 M⁻¹ s⁻¹ and a kd ([3]; Table 7) of 0.0011 s⁻¹. For the same substance, the Estimated soluble fraction [1] was 33% and the Tm [4, 6] was 41 °C.
For “Y00076: IL-6 binding Y variant from Ylib001Naive.I, SEQ ID NO:61 (LAEAKEAALAELDSKGIEEKSISEIEAGLWVEVVELLKESILAVLP; Engineered IL-6 binding Y variant)”, the Kd [2, 7] was 430 nM, the “α-helical content / ability to fold into an α-helical structure” value [4] was “limited ability” and the Tm [4, 8] was 47 °C.
Work on “Y02710: insulin binding Y variant, Y00358 with K15Y, SEQ ID NO:150 (LAEAKEAAIAELDSYGVGAAKIKWIQDAKSVETVQFLKQAILAELPA; Engineered insulin binding Y variant)” yielded a Kd ([3]; Table 9, mutation study 5) of 14 nM, a ka ([3]; Table 9, mutation study 5) of 190000 M⁻¹ s⁻¹ and a kd ([3]; Table 9, mutation study 5) of 0.0027 s⁻¹. The Est soluble fraction [1] was 100% and the Tm [4, 5] was 61 °C.
“Y00361: insulin binding Y variant from Ylib002Naive.I, SEQ ID NO:144 (LAEAKEAAIAELDSKGVGAKFIKMIQSAKLVETVQLLKQAILADLPA; Engineered insulin binding Y variant)” gave a Kd ([3]; Table 7) of 310 nM, a ka ([3]; Table 7) of 12000 M⁻¹ s⁻¹ and a kd ([3]; Table 7) of 0.0036 s⁻¹. For the same substance, the Estimated soluble fraction [1] was 100% and the Tm [4, 6] was 52 °C.
Substance “Y02711: insulin binding Y variant, Y00358 with Q26E, SEQ ID NO:151 (LAEAKEAAIAELDSKGVGAAKIKWIEDAKSVETVQFLKQAILAELPA; Engineered insulin binding Y variant)” has a Kd ([3]; Table 9, mutation study 5) of 54 nM, a ka ([3]; Table 9, mutation study 5) of 1500 M⁻¹ s⁻¹ and a kd ([3]; Table 9, mutation study 5) of 0.008 s⁻¹. For the same substance, the Est soluble fraction [1] was 100% and the Tm [4, 5] was 62 °C.
“Y00299: insulin binding Y variant from Ylib002Naive.I, SEQ ID NO:132 (LAEAKEAAIAELDSKGVGAYQIKFIQVAKTVEQVQILKQAILADLPA; Engineered insulin binding Y variant)” showed a Kd ([3]; Table 7) of 6.5 nM, a ka ([3]; Table 7) of 310000 M⁻¹ s⁻¹ and a kd ([3]; Table 7) of 0.002 s⁻¹. It also gave an Estimated soluble fraction [1] of 75% and a Tm [4, 6] of 56 °C.
“Y00330: insulin binding Y variant from Ylib002Naive.I, SEQ ID NO:136 (LAEAKEAAIAELDSKGVGAKYIKMIQMAKHVETVQYMKQAILASLPA; Engineered insulin binding Y variant)” showed a Kd ([3]; Table 7) of 120 nM, a ka ([3]; Table 7) of 30000 M⁻¹ s⁻¹ and a kd ([3]; Table 7) of 0.0037 s⁻¹. The Estimated soluble fraction [1] was 67% and the Tm [4, 6] was 56 °C.
“Y00310: insulin binding Y variant from Ylib002Naive.I, SEQ ID NO:135 (LAEAKEAAIAELDSKGVGAYQIKFIQIAHTVEEVQLMKQAILADLPA; Engineered insulin binding Y variant)” showed a Kd ([3]; Table 7) of 37 nM, a ka ([3]; Table 7) of 170000 M⁻¹ s⁻¹ and a kd ([3]; Table 7) of 0.0063 s⁻¹. For the same substance, the Estimated soluble fraction [1] was 86% and the Tm [4, 6] was 54 °C.
With “Y00035: IL-6 binding Y variant from Ylib001Naive.I, SEQ ID NO:50 (LAEAKEAANAELDSYGVQANSIEAIEQGLFVEVVELLKELILAALP; Engineered IL-6 binding Y variant)” the Kd [2, 7] was 360 nM, the “α-helical content / ability to fold into an α-helical structure” value [4] was “limited ability” and the Tm [4, 8] was 60 °C.
“Y02715: insulin binding Y variant, Y00358 with K15Y Q26E, SEQ ID NO:155 (LAEAKEAAIAELDSYGVGAAKIKWIEDAKSVETVQFLKQAILAELPA; Engineered insulin binding Y variant)” gave a Kd ([3]; Table 9, mutation study 5) of 280 nM, a ka ([3]; Table 9, mutation study 5) of 6700 M⁻¹ s⁻¹ and a kd ([3]; Table 9, mutation study 5) of 0.0019 s⁻¹. For the same substance, the Est soluble fraction [1] was 100% and the Tm [4, 5] was 61 °C.
For “Y00301: insulin binding Y variant from Ylib002Naive.I, SEQ ID NO:133 (LAEAKEAAIAELDSKGVGARQIKWIQQAKSVEVVQWLKQAILADLPA; Engineered insulin binding Y variant)”, the Kd ([3]; Table 7) was 0.94 nM, the ka ([3]; Table 7) was 2.9e+07 M⁻¹ s⁻¹ and the kd ([3]; Table 7) was 0.056 s⁻¹. It also gave an Estimated soluble fraction [1] of 83% and a Tm [4, 6] of 62 °C.
Substance “Y00358: insulin binding Y variant from Ylib002Naive.I, SEQ ID NO:142 (LAEAKEAAIAELDSKGVGAAKIKWIQDAKSVETVQFLKQAILAELPA; Engineered insulin binding Y variant)” has a Kd ([3]; Table 7) of 10 nM, a ka ([3]; Table 7) of 220000 M⁻¹ s⁻¹ and a kd ([3]; Table 7) of 0.0023 s⁻¹. For the same substance, the Estimated soluble fraction [1] was 97% and the Tm [4, 6] was 61 °C.
In the case of “Y00356a: insulin binding Y variant from Ylib002Naive.I, SEQ ID NO:141 (LAEAKEAAIAELDSKGVGAKYIKMIQHAHYVEVVQWLKQAILAHLPA; Engineered insulin binding Y variant)”, the Kd ([3]; Table 7) is reported as 0.17 nM, the ka ([3]; Table 7) is reported as 3.4e+07 M⁻¹ s⁻¹ and the kd ([3]; Table 7) is reported as 0.0061 s⁻¹. The Estimated soluble fraction [1] was 60% and the Tm [4, 6] was 56 °C.
